Assay results taken from the supplement of paper PMC10567573.
± gives the standard deviation.

Assay: protein stability index of a GFP-peptide fusion (GPS, HEK-293T) (PSI 1-6); higher = more stable
Conditions: c terminus: a fixed tail appended
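Also: 24-mer peptide tiles fused after GFP, lentivirally expressed, FACS-sorted into six equal bins by GFP/DsRed ratio, decoded by Illumina sequencing, PSI is the read-weighted mean bin number.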

| Sequence | protein stability index (treatment: DMSO) | protein stability index (treatment: MLN4924 1 uM, 8 h) |
| --- | --- | --- |
| LLNPEKYKAKSRSPGSPVGEGTGS [ADD1] | 4.52 ± 0.26 | 4.55 ± 0.21 |
| GRCGPQAARAAGRDVAAEAVARSP [POMT2] | 4 ± 0.35 | 3.63 ± 0.15 |
| CLEGSINEHSAHCPHTPEFSVTGG [RPAIN] | 4.2 ± 0.41 | 4.07 ± 0.21 |
| QPTTLVLPPQYVDDVISRIDRMFP [MED27] | 3.67 ± 0.24 | 3.98 ± 0.074 |
| LCLLVAWSIVGMAVVKGIQSSGKV [SLC6A17] | 2.76 ± 0.49 | 2.84 ± 0.21 |
| LTKLREMGREKCHQYWPAERSARY [PTPRD] | 2.33 ± 0.21 | 2.9 ± 0.45 |
| KPHRCHNCGKSFSRLTALTLHQRT [ZNF449] | 2.46 ± 0.096 | 2.78 ± 0.76 |
| VLQHVRLPLLSPKFLVGTVGSDPL [KLHL20] | 2.22 ± 0.28 | 2.13 ± 0.1 |
| APRGKNGFTPLHMAVDKDTTNVGR [FEM1A] | 4.37 ± 0.19 | 4.44 ± 0.18 |
| GNLNIHQRTHTGEKPYGCIDCGKA [ZNF649] | 3.96 ± 0.38 | 4.14 ± 0.4 |
| RSREARSRLLLLEQELKTVTYSLL [SMAD6] | 2.61 ± 0.36 | 2.5 ± 0.33 |
| NIRPADSRWVRDPRYREDPCKQCK [FBXO34] | 4.13 ± 0.36 | 4.28 ± 0.13 |
| PDGLRSGDGVPPRSLQDGTREGFG [LCOR] | 4.95 ± 0.11 | 5.15 ± 0.16 |
| KYEAQNIVNSTEESDDAFDTVTIP [IQUB] | 5.27 ± 0.22 | 5.09 ± 0.45 |
| SSSASSSFSEEGAVGYSSDSETLD [NFE2L1] | 5.65 ± 0.13 | 5.655 ± 0.043 |
| ARPTEVLAGTQLLYAFFTRTHGDM [TRIB3] | 2.43 ± 0.45 | 2.33 ± 0.38 |
| KVQKPLLQAPFLPPKAPPPVIKIP [RHOBTB1] | 3.17 ± 0.11 | 3.35 ± 0.13 |
| RLYVDKSLNLSTEFISSTKRPYAK [SERPINB5] | 3.41 ± 0.76 | 3.46 ± 0.5 |
| RNWALKESFIKAIGVGLGFELQRL [AASDHPPT] | 3 ± 0.54 | 2.63 ± 0.52 |
| PHQPVTAITRVSDRFSGETSAAAL [SMTNL2] | 4.32 ± 0.39 | 4.32 ± 0.17 |
| SSLSSESSESSDAGLCMDSPSPMD [CDC25B] | 5.462 ± 0.013 | 5.37 ± 0.23 |
| TEEVKFYQLGEEALLKFREDEGFV [KCNA4] | 4.16 ± 0.3 | 4.3 ± 0.24 |
| TPLPETGYWRVRLWNGDKYAATTT [TRIM39] | 2.47 ± 0.34 | 2.37 ± 0.2 |

| Sequence | protein stability index (treatment: DMSO) | protein stability index (treatment: MLN4924 1 uM, 8 h) |
| --- | --- | --- |
| LVDVACKHLTDTSHGVRNKCLQLL [INTS4] | 2.18 ± 0.49 | 2.46 ± 0.17 |
| IINTKKLSARDHQKLEREARICRL [CAMK2A] | 3.19 ± 0.23 | 3.27 ± 0.25 |
| GNEEEESKIFTTLDPASLAWLTEE [DDIT3] | 5.06 ± 0.2 | 5.09 ± 0.14 |
| VNEMCPNITRIYNIGKSHQGLKLY [CPXM2] | 2.52 ± 0.35 | 2.57 ± 0.5 |
| VDGDQSKILISGLEPSTPYRFLLY [TNXB] | 2.41 ± 0.45 | 2.21 ± 0.48 |
| TQEGAKDLEVDMNKTEVTPRLWTT [ACSBG2] | 3.55 ± 0.62 | 4.03 ± 0.68 |
| SPSPMSHGHYSMHCLHSAGHSQPD [DLX1] | 3.82 ± 0.18 | 3.91 ± 0.21 |
| FDAALVSFINFFTSVLATLVVFAV [SLC6A17] | 3.44 ± 0.4 | 3.44 ± 0.97 |
| DHQTLLSAAHEVELQRQKEAEKLE [NOP53] | 5.46 ± 0.15 | 5.42 ± 0.38 |
| AEDLRMLDASGEKMNGSHRDQGSS [IKZF1] | 5.18 ± 0.43 | 5.34 ± 0.23 |
| CLGVHCDFHQGLLSFYNARTKQVL [FSD1] | 2.42 ± 0.69 | 2.27 ± 0.18 |
| LLDLDPEVECLKANTNEVLWAVVA [GOLPH3] | 1.94 ± 0.21 | 2.22 ± 0.41 |
| RTDEELQPPTTTVARSGTPAVENK [PLK2] | 5.42 ± 0.6 | 5.45 ± 0.27 |
| EEDENGLPRRRGLRKKKTTKLRLE [NEUROD6] | 4.9 ± 0.28 | 4.94 ± 0.35 |
| FVHELHLSRLQRVKFCLLGALLAP [LPCAT4] | 2.41 ± 0.71 | 2.06 ± 0.34 |
| FEGRTPMHVACQHGQENIVRILLR [RIPK4] | 2.95 ± 0.49 | 2.95 ± 0.2 |
| PEIAQNFSAPDPPRPRPVSLSLRL [SMTNL2] | 2.91 ± 0.27 | 3.04 ± 0.22 |
| NAAKTCPTMPALFSDHTFRHYAYL [INTS4] | 2.03 ± 0.42 | 2.13 ± 0.29 |
| NGGVVQVGELLPCKICGRTFFPVA [ZC2HC1A] | 2.42 ± 0.091 | 2.48 ± 0.47 |
| TGIEYIVAQGPTNQGLNVMVWNQN [ADAMTSL2] | 2.175 ± 0.019 | 2.1 ± 0.24 |
| MAGRLMIRKLVAEKLNIPWNHIRL [AASDHPPT] | 2.4 ± 0.94 | 2.12 ± 0.34 |
| ENIDSLYNVNLSKGRAALSATVPR [SCNN1D] | 3.94 ± 0.39 | 4.04 ± 0.24 |
| DSNSGCLGDTQFCFRFRQSSGRRV [DENND6A] | 3.24 ± 0.35 | 3.06 ± 0.52 |

| Sequence | protein stability index (treatment: DMSO) | protein stability index (treatment: MLN4924 1 uM, 8 h) |
| --- | --- | --- |
| GGIIAPFIPSLKYVQWSLPFIVFG [SLC22A15] | 2.75 ± 0.39 | 2.86 ± 0.32 |
| FVLNRLQYAIISEAWRLVEEGIVS [CRYL1] | 3.17 ± 0.66 | 3.09 ± 0.24 |
| DFHKPFLGGFRHKVTGVEYHNAGT [IQUB] | 2.88 ± 0.32 | 2.88 ± 0.16 |
| HSSELTEQKLRACLEGSINEHSAH [RPAIN] | 4.55 ± 0.26 | 4.44 ± 0.12 |
| AGNRNSMVIHIPEEPRPSRPRYKA [KCNK9] | 4.14 ± 0.35 | 4.24 ± 0.13 |
| AMSTLGVIEAIAQITVKALPKPPG [PTPRD] | 2.21 ± 0.17 | 2.16 ± 0.26 |
| LGVGLGVEISRRLRHSNPRADPLV [SPNS1] | 3.082 ± 0.029 | 2.96 ± 0.22 |
| SERDKRPEGYNLKDEEGRLRDPAT [PPP2R2B] | 5.6 ± 0.29 | 5.4 ± 0.18 |
| ATKQLDFTRKTLAEKKQELDKLRN [SASS6] | 4.19 ± 0.26 | 4.43 ± 0.24 |
| LSRLSLMAMPNGFHEDGPQGPGGD [PSD2] | 4.89 ± 0.15 | 4.62 ± 0.13 |
| HNQVEAAWLEGRIRQEFDKLREFL [TRIM35] | 3.5 ± 0.52 | 3.75 ± 0.48 |
| LSLGLATVDIQNPDITSSRYRGLP [WAS] | 2.96 ± 0.25 | 3.12 ± 0.22 |
| MTKTVQYQNELHKFLIWDTAGQER [RAB22A] | 3.03 ± 0.23 | 3.14 ± 0.17 |
| LNCPFCGARLGGFNFVSTPKCSCG [RNF180] | 2.25 ± 0.51 | 3.28 ± 0.38 |
| TKKKKKTIVTDVFQGSMRIFTKKL [USP39] | 2.49 ± 0.26 | 2.83 ± 0.11 |
| KMGLQERSETFLEVWGNALLRPPV [DNAAF3] | 2.52 ± 0.55 | 2.49 ± 0.34 |
| GGQDSFESIESYDSCDRLTQSWSS [ETS1] | 3.68 ± 0.67 | 3.84 ± 0.3 |
| LQNFSSSWSDGMAFCALVHSFFPD [SMTNL2] | 2.6 ± 0.39 | 2.42 ± 0.44 |
| LDLSKNKLQQLPADFGRLVNLQHL [LRRC59] | 2.54 ± 0.33 | 2.63 ± 0.26 |
| SPMLIVFHGKYSTINPLWHIRHLG [GLT8D2] | 2.82 ± 0.44 | 2.47 ± 0.71 |
| LKLALDMEIATYRKLLESEECRMS [KRT71] | 2.79 ± 0.46 | 2.88 ± 0.24 |
| QEGSSGMELSWGQSPGQPVQGGSE [TEX19] | 5.28 ± 0.26 | 5.29 ± 0.51 |
| VDFQCVKSKSITNLAAAAADIPQD [BTBD10] | 4.79 ± 0.28 | 4.8 ± 0.11 |

| Sequence | protein stability index (treatment: DMSO) | protein stability index (treatment: MLN4924 1 uM, 8 h) |
| --- | --- | --- |
| PQSPPSCRAPPPEARGIRAPPLPD [FCHO1] | 4.92 ± 0.12 | 5.09 ± 0.24 |
| DNIREAFQIYDKEASGYVDRDMFF [EFHC1] | 3.5 ± 0.29 | 3.42 ± 0.18 |
| DLNRHLDEMCANNDFVQVDPGQVG [FAN1] | 4.29 ± 0.4 | 4.63 ± 0.058 |
| TGNVCIEEIDVDGKFIRLKNTSEQ [LMNB1] | 4.76 ± 0.29 | 4.76 ± 0.15 |
| IPEGLNYSENAPFHLSLFQGWMNL [PLD5] | 2.2 ± 0.55 | 1.91 ± 0.38 |
| GSLPWQGLKADTLKERYQKIGDTK [CSNK1G1] | 4.05 ± 0.083 | 4.19 ± 0.29 |
| LEFKLKSNDNEERLQVVKLLAKMF [PDS5B] | 2.12 ± 0.38 | 2.29 ± 0.28 |
| IDDLFAFVIKMPVMYRIGCLRDDV [CLPTM1] | 3.07 ± 0.97 | 3.2 ± 0.74 |
| FAHHSLFLHVRKATRAMGLLNTLS [TMEM175] | 2.6 ± 0.78 | 2.18 ± 0.23 |
| NTVVSTYVTTNVSLIPPRSEQLVN [TMEM106C] | 3.04 ± 0.3 | 3.19 ± 0.24 |
| ELKMRAIQAEERLDMEKRRCRQSL [LRRC45] | 3.92 ± 0.22 | 4.13 ± 0.11 |
| KDRASPADLRTNHTLNNLVEKLLR [TRIM35] | 2.44 ± 0.27 | 2.48 ± 0.13 |
| CSDSDKKCHLWTAMDLGFFVVMGV [CLCN6] | 2.95 ± 0.63 | 2.97 ± 0.5 |
| GFTSYLGFGDEDTGLELIAEESNP [MIA2] | 4.61 ± 0.22 |  |
| NCLTGEGEDTRLSASEMKQLIDNI [CIB1] | 4.67 ± 0.18 | 4.74 ± 0.32 |
| KPDKAVSIIECDMNVDFDAPLGYK [UFD1] | 3.94 ± 0.34 | 4.21 ± 0.2 |
| MPEFSSDSTMRILSNLVQHILKKY [RTP4] | 2.2 ± 0.39 | 2.52 ± 0.31 |
| VAQGPTNQGLNVMVWNQNGKSPSI [ADAMTSL2] | 3.11 ± 0.4 | 3.62 ± 0.23 |
| VSGLDSSYLREQMLNEPLVREIVK [GAN] | 3.14 ± 0.26 | 2.96 ± 0.25 |
| PHLMPSNCGLEEKIANLGSCNDSK [S100A14] | 2.61 ± 0.9 | 1.66 ± 0.27 |
